# From patent US20230049152A1 (Genentech, published 2023)
# T1: human ACKR4 (human, UniProt Q9NPB9 1-350)
# T1 construct: whole, on cells; transiently expressed on HEK293 cells
# T1 sequence (looked up): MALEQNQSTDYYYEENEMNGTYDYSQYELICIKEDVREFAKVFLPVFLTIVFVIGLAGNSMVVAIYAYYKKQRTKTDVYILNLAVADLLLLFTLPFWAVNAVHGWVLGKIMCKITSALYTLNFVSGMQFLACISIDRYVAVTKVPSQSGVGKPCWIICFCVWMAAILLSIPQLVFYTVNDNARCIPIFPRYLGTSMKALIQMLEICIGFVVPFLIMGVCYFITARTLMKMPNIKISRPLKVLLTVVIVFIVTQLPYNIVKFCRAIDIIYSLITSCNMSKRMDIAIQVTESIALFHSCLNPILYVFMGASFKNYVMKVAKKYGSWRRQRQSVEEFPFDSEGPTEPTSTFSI
# T2: human CCR3 (human, UniProt P51677 1-355)
# T2 construct: whole, on cells; transiently expressed on HEK293 cells
# T2 sequence (looked up): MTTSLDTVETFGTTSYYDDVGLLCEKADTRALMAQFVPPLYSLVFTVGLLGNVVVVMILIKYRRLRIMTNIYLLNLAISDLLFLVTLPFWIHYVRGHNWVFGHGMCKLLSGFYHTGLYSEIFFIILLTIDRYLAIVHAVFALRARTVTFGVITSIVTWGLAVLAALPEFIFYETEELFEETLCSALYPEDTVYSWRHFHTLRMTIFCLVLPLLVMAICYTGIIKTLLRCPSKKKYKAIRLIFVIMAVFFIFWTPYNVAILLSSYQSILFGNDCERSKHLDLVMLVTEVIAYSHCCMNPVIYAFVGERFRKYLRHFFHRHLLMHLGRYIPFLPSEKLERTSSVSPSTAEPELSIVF
# B1: Afuc.hu.Ab5.H13L1 (antibody, human IgG1, kappa)
# heavy: not shown
# light: DIQVTQSPSSLSASVGDRVTITCQASENIANALAWYQQKPGKPPKFLIYGASNLASGVPSRFSGSGSGTDFTFTISSLQPEDIATYYCQQAYYGNSFVEGTFGGGTKVEIKRTVAAPSVFIFPPSDEQLKSGTASVVCLLNNFYPREAKVQWKVDNALQSGNSQESVTEQDSKDSTYSLSSTLTLSKADYEKHKVYACEVTHQGLSSPVTKSFNRGEC
# modifications: afucosylated Fc N-glycan at position Asn299; between about 80% to about 95% afucosylation
# notes: also called Afuc.Ab5.H13L1; afucosylated hu.Ab5.H13L1
# B2: hu.Ab3.H1L1 (antibody, human IgG1, kappa, V domains shown)
# VH: EQQLVESGGGLVQPGGSLRLSCAVSGFSLSSYAMSWVRQAPGKGLEWIGVISASGRIIYATWAKGRFTISKDSAKTSVYLQMNSLRDEDTAVYFCARGVPSYSLVMSDWGPGTTVTVSS
# VL: EPVMTQSPATLSVSPGERATLSCQASQSISNALAWYQQKPGQPPRLLIYEVSKVASGVPARFSGSGSGTEFTLTISSLQSEDFAVYYCQSAYYGNSYVWGAFGQGTKVEIKR
# notes: humanized, human IgG1
# B3: hu.Ab2.H1L1 (antibody, human IgG1, kappa, V domains shown)
# VH: EQQLVESGGGVVQPGRSLRLSCAASGFSFSYGYDMCWVRQAPGKGLEWIACISAGSSDNTWYASWAKGRFTISKDTSKTTVYLQMNSLRAEDTAVYFCSRYLGLWGPGTLVTVSS
# VL: EQVLTQSPGTLSLSPGERATLSCQSSKSVNNNNLAWYQQKPGQPPRLLIYFASALASGVPDRFSGSGSGTDFTLTISRLEPEDFAVYYCQGAYSGGSDSYAFGGGTKVEIKR
# notes: humanized rabbit anti-CCR8 antibody, human IgG1
# What was measured:
# GST-FcgR3a.V158 [1] = molecular target: T3, GST-FcgR3a.V158 (UniProt P08637 17-208, limits assumed); experiment: ELISA, GST-FcgR3a captured by anti-GST antibody
# T3 construct: Captured by anti-GST antibody on ELISA plate; also called FcgR3a.V158 protein; Fcgamma RIIIa V158; not shown: GST tag
# Description: (§1) The binding of fucosylated and afucosylated variants of hu.Ab5.H13L1 and hu.Ab4.H12L3 to both FcgR3a proteins by ELISA was studied. Briefly, an anti-GST antibody was coated on Nunc Maxisorp plates. GST-FcgR3a.V158 and GST-FcgR3a.F158 were captured at 500 ng/mL. Plates were then washed and then serially diluted anti-CCR8 antibodies starting at 100 ug/mL were incubated on the plate for 1 hour at room temperature. Plates were washed and bound antibody was detected by a HRP-conjugated anti-human IgG secondary antibody. Absorbance at 450 nm was measured by a plate reader. The data were fitted using a 4-parameter logistic curve in Softmax Pro.
# GST-FcgR3a.F158 [2] = molecular target: T4, GST-FcgR3a.F158 (UniProt P08637 17-208, limits assumed); experiment: ELISA, GST-FcgR3a captured by anti-GST antibody
# T4 construct: Captured by anti-GST antibody on ELISA plate; also called FcgR3a.F158 protein; Fcgamma RIIIa F158; not shown: GST tag
# Description: as §1
# human CCR8 [3] = molecular target: T5, human CCR8 (human, UniProt P51685 1-355); experiment: cell-based or functional assay
# human CCR8 [4] = molecular target: T5, human CCR8; experiment: cell-based or functional assay; remark: listed apart in the source
# GST-FcgR3a.V158 [5] = molecular target: T3, GST-FcgR3a.V158; experiment: ELISA, GST-FcgR3a.V158 captured by anti-GST antibody
# Description: as §1
# cyno CCR8 [6] = molecular target: T6, cyno CCR8 (cynomolgus monkey, UniProt O97665 1-356 (rhesus entry)); experiment: whole-blood flow cytometry of cyno blood spiked ex vivo with a saturating concentration of the antibody, detected with labeled goat anti-human IgG on FoxP3+ T-reg cells; relative percentage of CCR8+ T-reg cells
# T6 construct: also called cynomolgus monkey CCR8
# Description: Blood was collected from each of the animals before dosing (“Pre-study”), as well as on Day 1 at 0 hours (“Pre-dose”). Each of the animals were then administered a single dose of 10 mg/kg afucosylated anti-gD (Control Group), Afuc.hu.Ab5.H13L1 (Group 2) or Afuc.hu.Ab4.H12L3 (Group 3) via intravenous injection. Blood was then collected from the animals and subjected to the following treatment prior to flow cytometry analysis: (i) blood sample not spiked with either test CCR8 mAb (“unspiked”), (ii) blood sample further spiked with a saturating concentration of Afuc.hu.Ab5.H13L1, and (iii) blood sample further spiked with a saturating concentration of Afuc.hu.Ab4.H12L3. Each of the unspiked and spiked samples were subsequently treated with a labeled goat anti-human IgG antibody and analyzed by flow cytometry. […] Furthermore, flow cytometry of spiked blood also had very little effect on the total CCR8+T-reg cell count.
# Anti-CCR8 antibodies Afuc.hu.Ab5.H13L1, Afuc.hu.Ab4.H12L3, and the control anti-gD were used for this study.
# GST-FcgR3a.F158 [7] = molecular target: T4, GST-FcgR3a.F158; experiment: ELISA, GST-FcgR3a.F158 captured by anti-GST antibody
# Description: as §1
# cyno CCR8 [8] = molecular target: T6, cyno CCR8; experiment: flow cytometry on human and cyno CCR8 CHO cells
# human CCR8 [9] = molecular target: T5, human CCR8; experiment: cell-based or functional assay; remark: listed apart in the source
# human CXCR4 = molecular target: T7, human CXCR4 (human, UniProt P61073 1-352); experiment: flow cytometry, HEK293 transiently transfected with N-term FLAG-tagged human CXCR4, antibody at 5 ug/ml
# T7 construct: whole, on cells; transiently expressed on HEK293 cells
# From the text: (§2) FIGS. 4A-4F depicts the binding data of hu.Ab3.H1L1 (FIG. 4A), hu.Ab4.H1L1 (FIG. 4B), and hu.Ab5.H1L1 (FIG. 4C), as well as the commercial anti-CCR8 mAbs murine anti-human CCR8 mAb 433H (BD Biosciences) (FIG. 4D), and murine anti-human CCR8 mAb L263G8 (Biolegend) (FIG. 4E), and the humanized anti-human Yoshida anti-CCR8 mAb (FIG. 4F), to HEK293 cells that were transiently transfected with N-term FLAG-tagged plasmids encoding for human GPCRs (CCR2, CCR3, CCR4, CCR5, CCR8, CXCR4, ACKR2, and ACKR4), hCCR8 constructs, or with a mock construct using transIT X2 (reagent:DNA=3:1).
# (§3) To confirm the selectivity to CCR8, the binding of hu.Ab3.H1L1, hu.Ab4.H1L1, and hu.Ab5.H1L1, as well as the Yoshida humanized anti-human CCR8, murine anti-human CCR8 mAb L263G8 (Biolegend, Commercial Ab) and murine anti-human CCR8 mAb 433H (BD Biosciences, Commercial Ab), were characterized by flow cytometry on HEK293 cells that were transiently transfected with plasmids encoding for FLAG-tagged other related human GPCRs (CCR2-5, CXCR4, ACKR2, and ACKR4). Cell surface expression of each GPCR was confirmed by staining with an anti-FLAG antibody control. […]
# human CCR2 = molecular target: T8, human CCR2 (human, UniProt P41597 1-374); experiment: flow cytometry, HEK293 with N-term FLAG-tagged human CCR2
# T8 construct: whole, on cells; transiently expressed on HEK293 cells
# From the text: as §2
# To confirm the selectivity to CCR8, the binding of hu.Ab3.H1L1, hu.Ab4.H1L1, and hu.Ab5.H1L1, as well as the Yoshida humanized anti-human CCR8, murine anti-human CCR8 mAb L263G8 (Biolegend, Commercial Ab) and murine anti-human CCR8 mAb 433H (BD Biosciences, Commercial Ab), were characterized by flow cytometry on HEK293 cells that were transiently transfected with plasmids encoding for FLAG-tagged other related human GPCRs (CCR2-5, CXCR4, ACKR2, and ACKR4). Cell surface expression of each GPCR was confirmed by staining with an anti-FLAG antibody control. In particular, HEK293 cells were transfected with N-term FLAG-tagged human CCR2, CCR3, CCR4, CCR5, CXCR4, ACKR2, ACKR4, hCCR8 constructs, or with a Mock construct using transIT X2 (reagent:DNA=3:1) for 24 hours, and surface stained with various anti-hCCR8 monoclonal antibodies at 5 ug/ml, or rabbit anti-Flag pAb (Sigma) followed by AF647-anti-hIgG or AF647-anti-RbIgG respectively. Antibodies hu.Ab4.H1L1, and hu.Ab5.H1L1, only stained the hCCR8-containing cells, confirming their specificity to hCCR8. […] Thus, the CCR8 selective hu.Ab4.H1L1 and hu.Ab5.H1L1 antibodies with the best ADCC activities were carried forward.
# human ACKR4 = molecular target: T1, human ACKR4; experiment: flow cytometry, HEK293 transiently transfected with N-term FLAG-tagged human ACKR4, antibody at 5 ug/ml
# From the text: as §2, §3
# human CCR5 = molecular target: T9, human CCR5 (human, UniProt P51681 1-352); experiment: flow cytometry, HEK293 transiently transfected with N-term FLAG-tagged human CCR5, antibody at 5 ug/ml
# T9 construct: whole, on cells; transiently expressed on HEK293 cells
# From the text: as §2, §3
# human CCR3 = molecular target: T2, human CCR3; experiment: flow cytometry, HEK293 transiently transfected with N-term FLAG-tagged human CCR3, antibody at 5 ug/ml
# From the text: as §2, §3
# human CCR8 [10] = molecular target: T5, human CCR8; experiment: flow cytometry, 2 ug/mL mAb, Treg cells of human colorectal dissociated tumor cells
# Description: (§4) The mAbs were evaluated for binding to regulatory T cells (Treg cells or Tregs) by Fluorescence-Activated Cell Sorting (FACS) flow cytometry. Human colorectal dissociated tumor cells (DTC) (Discovery Life Sciences) were thawed according to vendor's protocol. Cells were surface stained with eFluor 780-conjugated Fixable Viability Dye (ThermoFisher Scientific) and 2 ug/mL mAb specific for CCR8, OX40 (positive control), Herceptin (negative control), or anti-hIgG (negative control) for 20 min at 4° C. followed by secondary detection with AF647-conjugated AffiniPure F(ab′)2 Fragment Goat anti-Human IgG, Fcg fragment-specific (Jackson ImmunoResearch) for 10 min at 4° C. Cells were then intracellularly stained using the eBioscience Foxp3/Transcription Factor Staining Buffer Set (ThermoFisher Scientific) according to the manufacturer's protocol. […] Shown in FIG. 1 are mean fluorescent intensity (MFI) values for CD8 T cells (defined as CD45+CD14−CD3+CD8+CD4−) (circles, ◯), conventional CD4 T cells (defined as CD45+CD14−CD3+CD8−CD4+FOXP3−) (squares, □), and Treg cells (defined as CD45+CD14−CD3+CD8−CD4+FOXP3+) (triangles, ▴). Three of the five CCR8 mAb clones specifically stained Treg cells and not conventional CD4 or CD8 T cells and were ranked according to CCR8 MFI, greater than 500 MFI: hu.Ab4.H1L1>hu.Ab5.H1L1>hu.Ab3.H1L1. Upon confirmation that these three CCR8 mAb clones, namely, hu.Ab3.H1L1, hu.Ab4.H1L1, and hu.Ab5.H1L1, also retained human-cyno cross-reactivity (differences less than 5-fold on human and cyno CCR8 CHO cells), these antibodies carried forward for further exploration.
# human CCR8 [11] = molecular target: T5, human CCR8; experiment: flow cytometry, human colorectal cancer dissociated tumor cells, 2 ug/mL mAb, AF647 anti-human IgG; CCR8 read on Treg cells
# Description: as §4, with “Upon confirmation that these three CCR8 mAb clones, namely, hu.Ab3.H1L1, hu.Ab4.H1L1, and hu.Ab5.H1L1, also retained human-cyno cross-reactivity (differences less than 5-fold on human and cyno CCR8 CHO cells), these antibodies carried forward for further exploration.” left out
# T3 sequence (P08637 17-208 F176V limits assumed): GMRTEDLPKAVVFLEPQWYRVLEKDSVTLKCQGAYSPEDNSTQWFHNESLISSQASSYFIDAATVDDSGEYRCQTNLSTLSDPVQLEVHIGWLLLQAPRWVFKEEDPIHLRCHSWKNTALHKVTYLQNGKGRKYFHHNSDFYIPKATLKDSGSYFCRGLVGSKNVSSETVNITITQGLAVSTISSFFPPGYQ
# T6 sequence (O97665 other isoform, or with tags, fused parts or gaps): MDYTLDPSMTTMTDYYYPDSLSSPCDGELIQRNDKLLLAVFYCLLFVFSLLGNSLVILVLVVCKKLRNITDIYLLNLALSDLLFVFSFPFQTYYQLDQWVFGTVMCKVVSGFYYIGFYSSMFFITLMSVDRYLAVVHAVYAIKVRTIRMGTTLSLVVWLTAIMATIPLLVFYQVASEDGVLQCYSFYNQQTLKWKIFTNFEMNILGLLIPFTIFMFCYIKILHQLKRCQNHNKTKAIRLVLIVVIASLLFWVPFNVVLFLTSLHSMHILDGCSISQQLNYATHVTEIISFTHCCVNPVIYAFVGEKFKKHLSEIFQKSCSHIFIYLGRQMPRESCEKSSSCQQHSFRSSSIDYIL
# T4 sequence (P08637 17-208 limits assumed): as the sequence (P08637 17-208 F176V limits assumed) above, with V160F counted along it
# T7 sequence (P61073 whole entry): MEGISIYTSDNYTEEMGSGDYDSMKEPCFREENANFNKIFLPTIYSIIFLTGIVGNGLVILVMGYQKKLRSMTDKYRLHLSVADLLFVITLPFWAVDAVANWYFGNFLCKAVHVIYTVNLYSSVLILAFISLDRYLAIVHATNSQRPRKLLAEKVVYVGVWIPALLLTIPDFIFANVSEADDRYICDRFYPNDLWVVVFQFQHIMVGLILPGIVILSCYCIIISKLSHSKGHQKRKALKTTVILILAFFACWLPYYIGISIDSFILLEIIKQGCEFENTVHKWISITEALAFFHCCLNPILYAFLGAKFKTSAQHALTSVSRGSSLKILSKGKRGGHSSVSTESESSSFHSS
# T9 sequence (P51681 whole entry): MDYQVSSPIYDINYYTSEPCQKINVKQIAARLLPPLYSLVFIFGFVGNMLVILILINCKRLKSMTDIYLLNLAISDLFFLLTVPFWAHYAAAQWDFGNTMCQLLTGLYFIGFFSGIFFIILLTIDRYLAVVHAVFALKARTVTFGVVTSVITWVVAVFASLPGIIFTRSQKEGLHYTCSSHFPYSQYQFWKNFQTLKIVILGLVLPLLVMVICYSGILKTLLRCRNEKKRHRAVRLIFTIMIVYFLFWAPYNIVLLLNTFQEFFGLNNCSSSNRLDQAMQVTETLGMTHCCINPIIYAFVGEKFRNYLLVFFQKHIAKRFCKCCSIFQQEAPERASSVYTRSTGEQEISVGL
# T8 sequence (P41597 whole entry): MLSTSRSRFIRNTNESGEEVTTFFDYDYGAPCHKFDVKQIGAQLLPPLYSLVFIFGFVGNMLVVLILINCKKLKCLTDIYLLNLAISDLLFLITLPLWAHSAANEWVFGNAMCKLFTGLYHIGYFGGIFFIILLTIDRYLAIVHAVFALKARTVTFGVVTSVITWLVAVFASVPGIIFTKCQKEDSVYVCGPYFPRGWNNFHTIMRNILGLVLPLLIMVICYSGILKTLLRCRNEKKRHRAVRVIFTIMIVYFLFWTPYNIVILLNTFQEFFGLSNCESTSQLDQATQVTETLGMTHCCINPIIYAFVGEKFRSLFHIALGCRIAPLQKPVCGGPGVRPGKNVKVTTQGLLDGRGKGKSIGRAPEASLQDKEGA
binder,measurement,setting,value
B1,fold increase in binding potency versus fucosylated counterpart,GST-FcgR3a.V158 [1],~10 fold
same,fold increase in binding potency versus fucosylated counterpart,GST-FcgR3a.F158 [2],~10 fold
same,"ADCC EC50, NK-92 F158 cells (FIG. 11A)",human CCR8 [3],0.0047 nM
same,"ADCC EC50, NK-92 F158 cells (FIG. 11C)",human CCR8 [3],0.003 nM
same,"ADCC EC50, NK-92 V158 cells (FIG. 11B)",human CCR8 [3],0.0073 nM
same,"ADCP EC50, macrophages HR/FF (FIG. 14A)",human CCR8 [4],0.017 nM
same,"ADCP EC50, macrophages HR/FF (FIG. 14E)",human CCR8 [4],0.022 nM
same,"ADCP EC50, macrophages HR/VF (FIG. 14C)",human CCR8 [4],0.01 nM
same,"ADCP EC50, macrophages RR/FF (FIG. 14B)",human CCR8 [4],0.2 nM
same,"ADCP EC50, macrophages RR/VF (FIG. 14D)",human CCR8 [4],0.5 nM
same,EC50,GST-FcgR3a.V158 [5],0.035 µg/mL
same,binding result,cyno CCR8 [6],binds
same,EC50,GST-FcgR3a.F158 [7],0.101 µg/mL
B2,binding result,cyno CCR8 [8],binds
same,"ADCC EC50, NK-92_F158 effector cells, calcein release",human CCR8 [9],0.02 nM
same,binding result,human CXCR4,binds
same,binding result,human CCR2,no binding (tested: 5 ug/ml)
same,binding result,human ACKR4,binds
same,binding result,human CCR5,binds
same,binding result,human CCR3,binds
same,MFI,human CCR8 [10],> 500 MFI
B3,binding result,human CCR8 [11],binds
